Test results published in patent US20080206268A1 (RIJKSUNIVERSITEIT TE LEIDEN, published 2008).

How the values were obtained:
[1] = target: HLA-B60 on HLA typed EBV-LCLs (human); experiment: cell-based competition on acid-treated EBV-LCLs against 150 nM fluorescent reference peptide, flow cytometry
Procedure: (§1) Immediately after mild acidic treatment, the cells were washed with 12 ml Iscove's modified Dulbecco's medium (IMDM, Bio Whittaker, Belgium) containing 2% FCS and resuspended in IMDM containing 2% FCS, 1.5 μg/ml β2 microglobulin (Sigma, St. Louis, Mo., US). […] The mean fluorescence expressed by the cells was determined by a FACScalibur flow cytometer (Becton-Dickinson, St. Louis, Mo., US).

[2] = target: HLA-B7 on HLA typed EBV-LCLs (human); experiment: cell-based competition HLA peptide binding assay, flow cytometry;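 note: cells given mild acid treatment, then held in medium with 2% FCS and β2 microglobulin, read out as mean cell fluorescence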
Procedure: as §1

[3] = target: HLA-A24 on HLA typed EBV-LCLs (human); experiment: as above
Procedure: as §1

[4] = target: HLA-A1 on HLA typed EBV-LCLs (human); experiment: as above
Procedure: as §1

[5] = target: HLA-A11 on HLA typed EBV-LCLs (human); experiment: as above
Procedure: as §1

[6] = target: HLA-A3 on HLA typed EBV-LCLs (human); experiment: cell-based competition on acid-treated EBV-LCLs against 150 nM fluorescent reference peptide, flow cytometry
Procedure: as §1

Row | Binder | IC50 [1] [µM] | binding result [2] | binding result [3] | binding result [4] | binding result [5] | IC50 [6] [µM]
1 | KECVLRDDL (synthetic peptide; also called Peptide No. 8) [nonameric HA-1^R peptide KECVLRDDL] | 3.9 | no binding (tested: 100 to 0.78 µM) | no binding (tested: 100 to 0.78 µM) | no binding (tested: 100 to 0.78 µM) | no binding (tested: 100 to 0.78 µM) | 
2 | VLRDDLLEAR (synthetic peptide; also called Peptide No. 18) [decameric HA-1^R peptide VLRDDLLEAR] |  |  |  |  |  | 37.5
3 | KQSSKALQR [HLA-A3 binder-positive control peptide KQSSKALQR] |  |  |  |  |  | 9.4
4 | ECVLRDDLL (synthetic peptide; also called Peptide No. 12; nonameric HA-1^R peptide) [peptide ECVLRDDLL] |  | no binding (tested: 100 to 0.78 µM) | no binding (tested: 100 to 0.78 µM) | no binding (tested: 100 to 0.78 µM) | no binding (tested: 100 to 0.78 µM) | 
5 | CVLRDDLLE (synthetic peptide; also called nonameric HA-1^R peptide) [HA-1^H/R polymorphic region peptide No. 14, CVLRDDLLE] |  | no binding (tested: 100 to 0.78 µM) | no binding (tested: 100 to 0.78 µM) | no binding (tested: 100 to 0.78 µM) | no binding (tested: 100 to 0.78 µM) | 
6 | LRDDLLEAR (synthetic peptide; also called nonameric HA-1^R peptide) [HA-1^H/R polymorphic region peptide No. 20, LRDDLLEAR] |  | no binding (tested: 100 to 0.78 µM) | no binding (tested: 100 to 0.78 µM) | no binding (tested: 100 to 0.78 µM) | no binding (tested: 100 to 0.78 µM) | 
7 | RDDLLEARR (synthetic peptide; also called nonameric HA-1^R peptide) [HA-1^H/R polymorphic region peptide No. 22, RDDLLEARR] |  | no binding (tested: 100 to 0.78 µM) | no binding (tested: 100 to 0.78 µM) | no binding (tested: 100 to 0.78 µM) | no binding (tested: 100 to 0.78 µM) | 
8 | EKLKECVLR (synthetic peptide; also called nonameric HA-1^R peptide) [HA-1^H/R polymorphic region peptide No. 2, EKLKECVLR] |  | no binding (tested: 100 to 0.78 µM) | no binding (tested: 100 to 0.78 µM) | no binding (tested: 100 to 0.78 µM) | no binding (tested: 100 to 0.78 µM) | 
9 | KLKECVLRD (synthetic peptide; also called nonameric HA-1^R peptide) [HA-1^H/R polymorphic region peptide No. 4, KLKECVLRD] |  | no binding (tested: 100 to 0.78 µM) | no binding (tested: 100 to 0.78 µM) | no binding (tested: 100 to 0.78 µM) | no binding (tested: 100 to 0.78 µM) | 
10 | LKECVLRDD (synthetic peptide; also called nonameric HA-1^R peptide) [HA-1^H/R polymorphic region peptide No. 6, LKECVLRDD] |  | no binding (tested: 100 to 0.78 µM) | no binding (tested: 100 to 0.78 µM) | no binding (tested: 100 to 0.78 µM) | no binding (tested: 100 to 0.78 µM) | 
